From patent publication US20220267435A1

Molecular target: CD19 (UniProt P15391)
Test: cell-based or functional assay

UniProt P15391, sequence (P15391 20-556 limits assumed): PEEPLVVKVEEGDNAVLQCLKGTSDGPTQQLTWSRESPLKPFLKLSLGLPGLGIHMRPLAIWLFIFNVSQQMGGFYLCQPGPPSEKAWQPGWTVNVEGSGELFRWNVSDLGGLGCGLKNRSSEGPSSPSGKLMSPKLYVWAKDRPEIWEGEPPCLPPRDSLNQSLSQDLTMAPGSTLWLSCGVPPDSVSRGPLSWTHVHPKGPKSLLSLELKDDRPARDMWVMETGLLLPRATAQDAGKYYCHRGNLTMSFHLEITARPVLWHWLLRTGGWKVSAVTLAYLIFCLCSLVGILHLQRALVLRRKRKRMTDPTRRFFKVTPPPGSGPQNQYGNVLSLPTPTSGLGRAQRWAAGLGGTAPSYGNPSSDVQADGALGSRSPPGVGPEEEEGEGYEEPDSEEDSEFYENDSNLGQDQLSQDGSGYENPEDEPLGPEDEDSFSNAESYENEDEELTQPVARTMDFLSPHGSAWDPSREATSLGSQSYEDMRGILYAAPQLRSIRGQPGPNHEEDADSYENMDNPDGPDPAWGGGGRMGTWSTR

BG-conjugated FMC63 antibody
FMC63-BG concentration at the peak of SNAP-synNotch activation (TagBFP): 0.25 µg/mL
FMC63-BG concentration at which SNAP-synNotch activation is completely inhibited (hook effect): 10 µg/mL
TagBFP MFI; 0.01 million SNAP-synNotch cells, 0.01 million Raji cells, 0.1 µg/mL FMC63-BG, 48 h: 1820 MFI
TagBFP MFI; 0.01 million SNAP-synNotch cells, 0.01 million Raji cells, 1.0 µg/mL FMC63-BG, 48 h: 806 MFI
TagBFP MFI; 0.01 million SNAP-synNotch cells, 0.1 million Raji cells, 0.1 µg/mL FMC63-BG, 48 h: 3400 MFI
TagBFP MFI; 0.01 million SNAP-synNotch cells, 0.1 million Raji cells, 1.0 µg/mL FMC63-BG, 48 h: 2470 MFI
TagBFP MFI; 0.01 million SNAP-synNotch cells, 0.5 million Raji cells, 0.1 µg/mL FMC63-BG, 48 h: 1810 MFI
TagBFP MFI; 0.01 million SNAP-synNotch cells, 0.5 million Raji cells, 1.0 µg/mL FMC63-BG, 48 h: 5350 MFI
TagBFP MFI; 0.01 million SNAP-synNotch cells, 1 million Raji cells, 0.1 µg/mL FMC63-BG, 48 h: 1520 MFI
TagBFP MFI; 0.01 million SNAP-synNotch cells, 1 million Raji cells, 1.0 µg/mL FMC63-BG, 48 h: 4430 MFI
TagBFP MFI; 0.1 million SNAP-synNotch cells, 0.01 million Raji cells, 0.1 µg/mL FMC63-BG, 48 h: 1020 MFI
TagBFP MFI; 0.1 million SNAP-synNotch cells, 0.01 million Raji cells, 1.0 µg/mL FMC63-BG, 48 h: 984 MFI
TagBFP MFI; 0.1 million SNAP-synNotch cells, 0.1 million Raji cells, 0.1 µg/mL FMC63-BG, 48 h: 2540 MFI
TagBFP MFI; 0.1 million SNAP-synNotch cells, 0.1 million Raji cells, 1.0 µg/mL FMC63-BG, 48 h: 2260 MFI
TagBFP MFI; 0.1 million SNAP-synNotch cells, 0.5 million Raji cells, 0.1 µg/mL FMC63-BG, 48 h: 1940 MFI
TagBFP MFI; 0.1 million SNAP-synNotch cells, 0.5 million Raji cells, 1.0 µg/mL FMC63-BG, 48 h: 4570 MFI
TagBFP MFI; 0.1 million SNAP-synNotch cells, 1 million Raji cells, 0.1 µg/mL FMC63-BG, 48 h: 1180 MFI
TagBFP MFI; 0.1 million SNAP-synNotch cells, 1 million Raji cells, 1.0 µg/mL FMC63-BG, 48 h: 4220 MFI
TagBFP MFI; 0.5 million SNAP-synNotch cells, 0.01 million Raji cells, 0.1 µg/mL FMC63-BG, 48 h: 732 MFI
TagBFP MFI; 0.5 million SNAP-synNotch cells, 0.01 million Raji cells, 1.0 µg/mL FMC63-BG, 48 h: 667 MFI
TagBFP MFI; 0.5 million SNAP-synNotch cells, 0.1 million Raji cells, 0.1 µg/mL FMC63-BG, 48 h: 1570 MFI
TagBFP MFI; 0.5 million SNAP-synNotch cells, 0.1 million Raji cells, 1.0 µg/mL FMC63-BG, 48 h: 1490 MFI
TagBFP MFI; 0.5 million SNAP-synNotch cells, 0.5 million Raji cells, 0.1 µg/mL FMC63-BG, 48 h: 1120 MFI
TagBFP MFI; 0.5 million SNAP-synNotch cells, 0.5 million Raji cells, 1.0 µg/mL FMC63-BG, 48 h: 2680 MFI
TagBFP MFI; 0.5 million SNAP-synNotch cells, 1 million Raji cells, 0.1 µg/mL FMC63-BG, 48 h: 955 MFI
TagBFP MFI; 0.5 million SNAP-synNotch cells, 1 million Raji cells, 1.0 µg/mL FMC63-BG, 48 h: 2880 MFI
TagBFP MFI; 1 million SNAP-synNotch cells, 0.01 million Raji cells, 0.1 µg/mL FMC63-BG, 48 h: 550 MFI
TagBFP MFI; 1 million SNAP-synNotch cells, 0.01 million Raji cells, 1.0 µg/mL FMC63-BG, 48 h: 519 MFI
TagBFP MFI; 1 million SNAP-synNotch cells, 0.1 million Raji cells, 0.1 µg/mL FMC63-BG, 48 h: 1160 MFI
TagBFP MFI; 1 million SNAP-synNotch cells, 0.1 million Raji cells, 1.0 µg/mL FMC63-BG, 48 h: 1220 MFI
TagBFP MFI; 1 million SNAP-synNotch cells, 0.5 million Raji cells, 0.1 µg/mL FMC63-BG, 48 h: 979 MFI
TagBFP MFI; 1 million SNAP-synNotch cells, 0.5 million Raji cells, 1.0 µg/mL FMC63-BG, 48 h: 1810 MFI
TagBFP MFI; 1 million SNAP-synNotch cells, 1 million Raji cells, 0.1 µg/mL FMC63-BG, 48 h: 748 MFI
TagBFP MFI; 1 million SNAP-synNotch cells, 1 million Raji cells, 1.0 µg/mL FMC63-BG, 48 h: 1970 MFI
lowest FMC63-BG concentration with significant SNAP-synNotch activation (TagBFP): 0.04 µg/mL
